Patent publication US11965039B2, “Compstatin analogues and their medical uses” (priority 2018, dated 2024)
Positions of bridges follow the written chain, without caps; N, C: chain ends. Non-standard residues stand in square brackets, D forms with d. Trp(1-Me) = Cn1cc(C[C@H](N)C(=O)O)c2ccccc21; 1Nal = N[C@@H](Cc1cccc2ccccc12)C(=O)O; 2Nal = N[C@@H](Cc1ccc2ccccc2c1)C(=O)O; Sar = CNCC(=O)O

B1: Compound 73 (peptide)
peptide: H-[dY]FCI[Trp(1-Me)]QDW[Sar]EHRCTGAES-NH2
modifications: disulfide 3-13
SMILES: CC[C@H](C)[C@@H]1NC(=O)[C@@H](NC(=O)[C@H](Cc2ccccc2)NC(=O)[C@H](N)Cc2ccc(O)cc2)CSSC[C@@H](C(=O)N[C@H](C(=O)NCC(=O)N[C@@H](C)C(=O)N[C@@H](CCC(=O)O)C(=O)N[C@@H](CO)C(N)=O)[C@@H](C)O)NC(=O)[C@H](CCCNC(=N)N)NC(=O)[C@H](Cc2c[nH]cn2)NC(=O)[C@H](CCC(=O)O)NC(=O)CN(C)C(=O)[C@H](Cc2c[nH]c3ccccc23)NC(=O)[C@H](CC(=O)O)NC(=O)[C@H](CCC(N)=O)NC(=O)[C@H](Cc2cn(C)c3ccccc23)NC1=O
B2: Compound E (peptide)
peptide: Ac-ICVWQDWGAHSCT-NH2
modifications: disulfide 2-12
SMILES: CC[C@H](C)[C@H](NC(C)=O)C(=O)N[C@H]1CSSC[C@@H](C(=O)N[C@H](C(N)=O)[C@@H](C)O)NC(=O)[C@H](CO)NC(=O)[C@H](Cc2c[nH]cn2)NC(=O)[C@H](C)NC(=O)CNC(=O)[C@H](Cc2c[nH]c3ccccc23)NC(=O)[C@H](CC(=O)O)NC(=O)[C@H](CCC(N)=O)NC(=O)[C@H](Cc2c[nH]c3ccccc23)NC(=O)[C@H](C(C)C)NC1=O
B3: Compound 85 (peptide)
peptide: Ac-EFCI[Trp(1-Me)]QDWGEHRCES-NH2
modifications: disulfide 3-13
SMILES: CC[C@H](C)[C@@H]1NC(=O)[C@@H](NC(=O)[C@H](Cc2ccccc2)NC(=O)[C@H](CCC(=O)O)NC(C)=O)CSSC[C@@H](C(=O)N[C@@H](CCC(=O)O)C(=O)N[C@@H](CO)C(N)=O)NC(=O)[C@H](CCCNC(=N)N)NC(=O)[C@H](Cc2c[nH]cn2)NC(=O)[C@H](CCC(=O)O)NC(=O)CNC(=O)[C@H](Cc2c[nH]c3ccccc23)NC(=O)[C@H](CC(=O)O)NC(=O)[C@H](CCC(N)=O)NC(=O)[C@H](Cc2cn(C)c3ccccc23)NC1=O
B4: Compound 82 (peptide)
peptide: Ac-SE[Sar]CI[Trp(1-Me)]QDWGEHRCTEA-NH2
modifications: disulfide 4-14
SMILES: CC[C@H](C)[C@@H]1NC(=O)[C@@H](NC(=O)CN(C)C(=O)[C@H](CCC(=O)O)NC(=O)[C@H](CO)NC(C)=O)CSSC[C@@H](C(=O)N[C@H](C(=O)N[C@@H](CCC(=O)O)C(=O)N[C@@H](C)C(N)=O)[C@@H](C)O)NC(=O)[C@H](CCCNC(=N)N)NC(=O)[C@H](Cc2c[nH]cn2)NC(=O)[C@H](CCC(=O)O)NC(=O)CNC(=O)[C@H](Cc2c[nH]c3ccccc23)NC(=O)[C@H](CC(=O)O)NC(=O)[C@H](CCC(N)=O)NC(=O)[C@H](Cc2cn(C)c3ccccc23)NC1=O
B5: Compound 50 (peptide)
peptide: Ac-EGSAICI[2Nal]QDWGEHRC[Sar]E-NH2
modifications: disulfide 6-16
SMILES: CC[C@H](C)[C@H](NC(=O)[C@H](C)NC(=O)[C@H](CO)NC(=O)CNC(=O)[C@H](CCC(=O)O)NC(C)=O)C(=O)N[C@H]1CSSC[C@@H](C(=O)N(C)CC(=O)N[C@@H](CCC(=O)O)C(N)=O)NC(=O)[C@H](CCCNC(=N)N)NC(=O)[C@H](Cc2c[nH]cn2)NC(=O)[C@H](CCC(=O)O)NC(=O)CNC(=O)[C@H](Cc2c[nH]c3ccccc23)NC(=O)[C@H](CC(=O)O)NC(=O)[C@H](CCC(N)=O)NC(=O)[C@H](Cc2ccc3ccccc3c2)NC(=O)[C@H]([C@@H](C)CC)NC1=O
B6: Compound 67 (peptide)
peptide: Ac-SEFCI[Trp(1-Me)]QDWGEHRCTGAES-NH2
modifications: disulfide 4-14
SMILES: CC[C@H](C)[C@@H]1NC(=O)[C@@H](NC(=O)[C@H](Cc2ccccc2)NC(=O)[C@H](CCC(=O)O)NC(=O)[C@H](CO)NC(C)=O)CSSC[C@@H](C(=O)N[C@H](C(=O)NCC(=O)N[C@@H](C)C(=O)N[C@@H](CCC(=O)O)C(=O)N[C@@H](CO)C(N)=O)[C@@H](C)O)NC(=O)[C@H](CCCNC(=N)N)NC(=O)[C@H](Cc2c[nH]cn2)NC(=O)[C@H](CCC(=O)O)NC(=O)CNC(=O)[C@H](Cc2c[nH]c3ccccc23)NC(=O)[C@H](CC(=O)O)NC(=O)[C@H](CCC(N)=O)NC(=O)[C@H](Cc2cn(C)c3ccccc23)NC1=O
B7: Compound 49 (peptide)
peptide: Ac-EGSAICI[Trp(1-Me)]QDWGEHRC[Sar]E-NH2
modifications: disulfide 6-16
SMILES: CC[C@H](C)[C@H](NC(=O)[C@H](C)NC(=O)[C@H](CO)NC(=O)CNC(=O)[C@H](CCC(=O)O)NC(C)=O)C(=O)N[C@H]1CSSC[C@@H](C(=O)N(C)CC(=O)N[C@@H](CCC(=O)O)C(N)=O)NC(=O)[C@H](CCCNC(=N)N)NC(=O)[C@H](Cc2c[nH]cn2)NC(=O)[C@H](CCC(=O)O)NC(=O)CNC(=O)[C@H](Cc2c[nH]c3ccccc23)NC(=O)[C@H](CC(=O)O)NC(=O)[C@H](CCC(N)=O)NC(=O)[C@H](Cc2cn(C)c3ccccc23)NC(=O)[C@H]([C@@H](C)CC)NC1=O
B8: Compound 75 (peptide)
peptide: Ac-SEFCI[Trp(1-Me)]QDWGEHRC[Sar]EA-NH2
modifications: disulfide 4-14
SMILES: CC[C@H](C)[C@@H]1NC(=O)[C@@H](NC(=O)[C@H](Cc2ccccc2)NC(=O)[C@H](CCC(=O)O)NC(=O)[C@H](CO)NC(C)=O)CSSC[C@@H](C(=O)N(C)CC(=O)N[C@@H](CCC(=O)O)C(=O)N[C@@H](C)C(N)=O)NC(=O)[C@H](CCCNC(=N)N)NC(=O)[C@H](Cc2c[nH]cn2)NC(=O)[C@H](CCC(=O)O)NC(=O)CNC(=O)[C@H](Cc2c[nH]c3ccccc23)NC(=O)[C@H](CC(=O)O)NC(=O)[C@H](CCC(N)=O)NC(=O)[C@H](Cc2cn(C)c3ccccc23)NC1=O
B9: Compound 86 (peptide)
peptide: Ac-SEFCI[Trp(1-Me)]QDWGEHKC[Sar]EA-NH2
modifications: disulfide 4-14
SMILES: CC[C@H](C)[C@@H]1NC(=O)[C@@H](NC(=O)[C@H](Cc2ccccc2)NC(=O)[C@H](CCC(=O)O)NC(=O)[C@H](CO)NC(C)=O)CSSC[C@@H](C(=O)N(C)CC(=O)N[C@@H](CCC(=O)O)C(=O)N[C@@H](C)C(N)=O)NC(=O)[C@H](CCCCN)NC(=O)[C@H](Cc2c[nH]cn2)NC(=O)[C@H](CCC(=O)O)NC(=O)CNC(=O)[C@H](Cc2c[nH]c3ccccc23)NC(=O)[C@H](CC(=O)O)NC(=O)[C@H](CCC(N)=O)NC(=O)[C@H](Cc2cn(C)c3ccccc23)NC1=O
B10: Compound 63 (peptide)
peptide: Ac-FCI[1Nal]QDWGEHRCTGAES-NH2
modifications: disulfide 2-12
SMILES: CC[C@H](C)[C@@H]1NC(=O)[C@@H](NC(=O)[C@H](Cc2ccccc2)NC(C)=O)CSSC[C@@H](C(=O)N[C@H](C(=O)NCC(=O)N[C@@H](C)C(=O)N[C@@H](CCC(=O)O)C(=O)N[C@@H](CO)C(N)=O)[C@@H](C)O)NC(=O)[C@H](CCCNC(=N)N)NC(=O)[C@H](Cc2c[nH]cn2)NC(=O)[C@H](CCC(=O)O)NC(=O)CNC(=O)[C@H](Cc2c[nH]c3ccccc23)NC(=O)[C@H](CC(=O)O)NC(=O)[C@H](CCC(N)=O)NC(=O)[C@H](Cc2cccc3ccccc23)NC1=O
B11: Compound 81 (peptide)
peptide: Ac-SE[Sar]CI[Trp(1-Me)]QDWGEHRC[Sar]EA-NH2
modifications: disulfide 4-14
SMILES: CC[C@H](C)[C@@H]1NC(=O)[C@@H](NC(=O)CN(C)C(=O)[C@H](CCC(=O)O)NC(=O)[C@H](CO)NC(C)=O)CSSC[C@@H](C(=O)N(C)CC(=O)N[C@@H](CCC(=O)O)C(=O)N[C@@H](C)C(N)=O)NC(=O)[C@H](CCCNC(=N)N)NC(=O)[C@H](Cc2c[nH]cn2)NC(=O)[C@H](CCC(=O)O)NC(=O)CNC(=O)[C@H](Cc2c[nH]c3ccccc23)NC(=O)[C@H](CC(=O)O)NC(=O)[C@H](CCC(N)=O)NC(=O)[C@H](Cc2cn(C)c3ccccc23)NC1=O
B12: Compound B (peptide)
peptide: Ac-ICVWQDWGSHRCT-NH2
modifications: disulfide 2-12
SMILES: CC[C@H](C)[C@H](NC(C)=O)C(=O)N[C@H]1CSSC[C@@H](C(=O)N[C@H](C(N)=O)[C@@H](C)O)NC(=O)[C@H](CCCNC(=N)N)NC(=O)[C@H](Cc2c[nH]cn2)NC(=O)[C@H](CO)NC(=O)CNC(=O)[C@H](Cc2c[nH]c3ccccc23)NC(=O)[C@H](CC(=O)O)NC(=O)[C@H](CCC(N)=O)NC(=O)[C@H](Cc2c[nH]c3ccccc23)NC(=O)[C@H](C(C)C)NC1=O
B13: Compound C (peptide)
peptide: Ac-ESSAICVWQDWGEHRCT-NH2
modifications: disulfide 6-16
SMILES: CC[C@H](C)[C@H](NC(=O)[C@H](C)NC(=O)[C@H](CO)NC(=O)[C@H](CO)NC(=O)[C@H](CCC(=O)O)NC(C)=O)C(=O)N[C@H]1CSSC[C@@H](C(=O)N[C@H](C(N)=O)[C@@H](C)O)NC(=O)[C@H](CCCNC(=N)N)NC(=O)[C@H](Cc2c[nH]cn2)NC(=O)[C@H](CCC(=O)O)NC(=O)CNC(=O)[C@H](Cc2c[nH]c3ccccc23)NC(=O)[C@H](CC(=O)O)NC(=O)[C@H](CCC(N)=O)NC(=O)[C@H](Cc2c[nH]c3ccccc23)NC(=O)[C@H](C(C)C)NC1=O

Experiments:
[1] = molecular target: T1, Human C3 (Complement tech cat #A113c) (human, UniProt P01024 23-1663); experiment: cell-based or functional assay
[2] = molecular target: T1, Human C3 (Complement tech cat #A113c); experiment: SPR (Biacore T200), human C3 immobilised, peptide injected, 1:1 fit
Procedure, shortened: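 Human C3 amine-coupled on CM5 chips to about 3000 RU. Multi-cycle runs on Biacore T200 at 25° C: peptides at 6-8 rising concentrations, 60-120 s at 30 µL/min in 10 mM Tris pH 7.4, 150 mM NaCl, 0.05% Tween20, dissociation up to 10 min; 3 M MgCl2 regeneration. Kd derived.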

[3] = molecular target: T1, Human C3 (Complement tech cat #A113c); experiment: cell-based or functional assay; remark: listed apart in the source

T1 sequence (P01024 23-1663 limits assumed): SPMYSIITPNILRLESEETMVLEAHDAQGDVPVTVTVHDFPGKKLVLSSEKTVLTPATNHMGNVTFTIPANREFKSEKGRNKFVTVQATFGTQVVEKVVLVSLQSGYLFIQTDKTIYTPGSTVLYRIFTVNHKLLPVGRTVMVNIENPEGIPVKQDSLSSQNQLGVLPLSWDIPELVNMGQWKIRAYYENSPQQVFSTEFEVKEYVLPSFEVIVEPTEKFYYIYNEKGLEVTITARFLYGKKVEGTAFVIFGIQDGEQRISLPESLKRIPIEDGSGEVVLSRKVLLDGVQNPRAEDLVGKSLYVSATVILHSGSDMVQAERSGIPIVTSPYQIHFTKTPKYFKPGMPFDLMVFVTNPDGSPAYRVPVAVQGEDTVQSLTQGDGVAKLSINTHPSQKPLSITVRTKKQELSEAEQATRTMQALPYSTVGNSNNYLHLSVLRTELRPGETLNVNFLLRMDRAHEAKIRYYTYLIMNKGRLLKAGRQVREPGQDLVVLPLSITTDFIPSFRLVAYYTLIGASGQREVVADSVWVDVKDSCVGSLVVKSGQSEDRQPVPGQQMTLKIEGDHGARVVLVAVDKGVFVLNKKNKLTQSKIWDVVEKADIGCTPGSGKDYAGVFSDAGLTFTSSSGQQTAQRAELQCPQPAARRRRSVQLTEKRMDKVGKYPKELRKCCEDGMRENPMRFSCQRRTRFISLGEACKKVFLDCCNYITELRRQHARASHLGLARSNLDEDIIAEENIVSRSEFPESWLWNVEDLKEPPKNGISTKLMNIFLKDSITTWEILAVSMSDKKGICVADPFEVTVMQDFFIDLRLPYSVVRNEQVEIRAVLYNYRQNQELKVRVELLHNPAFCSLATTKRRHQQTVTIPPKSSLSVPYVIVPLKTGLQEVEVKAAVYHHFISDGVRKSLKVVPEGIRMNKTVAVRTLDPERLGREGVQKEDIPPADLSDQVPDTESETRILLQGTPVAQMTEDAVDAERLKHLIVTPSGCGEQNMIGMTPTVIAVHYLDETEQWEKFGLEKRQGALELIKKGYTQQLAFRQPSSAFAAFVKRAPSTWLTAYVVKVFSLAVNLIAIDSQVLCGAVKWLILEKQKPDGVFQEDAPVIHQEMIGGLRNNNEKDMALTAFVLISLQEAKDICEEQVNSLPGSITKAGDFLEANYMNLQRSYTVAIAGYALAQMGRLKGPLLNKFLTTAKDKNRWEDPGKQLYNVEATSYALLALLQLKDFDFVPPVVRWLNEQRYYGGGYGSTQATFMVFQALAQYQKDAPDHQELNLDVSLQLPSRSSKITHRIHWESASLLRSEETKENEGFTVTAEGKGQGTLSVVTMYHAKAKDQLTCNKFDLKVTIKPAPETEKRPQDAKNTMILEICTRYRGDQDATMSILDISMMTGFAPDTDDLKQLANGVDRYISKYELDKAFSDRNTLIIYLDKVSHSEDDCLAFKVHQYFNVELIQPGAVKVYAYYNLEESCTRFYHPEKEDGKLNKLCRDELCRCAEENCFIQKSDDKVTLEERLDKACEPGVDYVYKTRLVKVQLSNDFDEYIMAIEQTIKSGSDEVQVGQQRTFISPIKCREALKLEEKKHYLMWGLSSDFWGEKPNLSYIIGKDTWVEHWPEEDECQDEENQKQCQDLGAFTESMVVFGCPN

Row | Binder | inhibition of hemolysis IC50 [1] | Kd [2] | CP hemolysis IC50 [3]
1 | B1 | < 100 nM | 0.3 nM | –
2 | B2 | – | – | > 1000 nM
3 | B3 | < 100 nM | 1.3 nM | –
4 | B4 | < 100 nM | 5.4 nM | –
5 | B5 | < 100 nM | 13 nM | –
6 | B6 | < 100 nM | 0.68 nM | –
7 | B7 | < 100 nM | 3.2 nM | –
8 | B8 | < 100 nM | 1.5 nM | –
9 | B9 | < 100 nM | 2.6 nM | –
10 | B10 | < 100 nM | 4.3 nM | –
11 | B11 | < 100 nM | 9.7 nM | –
12 | B12 | – | – | 360 nM
13 | B13 | – | – | 300 nM
